First the molecules themselves.
T1: Human Solute Carrier Family 34 Member 2 (SLC34A2) (human, UniProt O95436 1-690)
T1 construct: Endogenous on OVCAR-3 cells; engineered on 786-O cells in the CAR kinetics assay; also called NaPi2b; NPT2B
T1 sequence: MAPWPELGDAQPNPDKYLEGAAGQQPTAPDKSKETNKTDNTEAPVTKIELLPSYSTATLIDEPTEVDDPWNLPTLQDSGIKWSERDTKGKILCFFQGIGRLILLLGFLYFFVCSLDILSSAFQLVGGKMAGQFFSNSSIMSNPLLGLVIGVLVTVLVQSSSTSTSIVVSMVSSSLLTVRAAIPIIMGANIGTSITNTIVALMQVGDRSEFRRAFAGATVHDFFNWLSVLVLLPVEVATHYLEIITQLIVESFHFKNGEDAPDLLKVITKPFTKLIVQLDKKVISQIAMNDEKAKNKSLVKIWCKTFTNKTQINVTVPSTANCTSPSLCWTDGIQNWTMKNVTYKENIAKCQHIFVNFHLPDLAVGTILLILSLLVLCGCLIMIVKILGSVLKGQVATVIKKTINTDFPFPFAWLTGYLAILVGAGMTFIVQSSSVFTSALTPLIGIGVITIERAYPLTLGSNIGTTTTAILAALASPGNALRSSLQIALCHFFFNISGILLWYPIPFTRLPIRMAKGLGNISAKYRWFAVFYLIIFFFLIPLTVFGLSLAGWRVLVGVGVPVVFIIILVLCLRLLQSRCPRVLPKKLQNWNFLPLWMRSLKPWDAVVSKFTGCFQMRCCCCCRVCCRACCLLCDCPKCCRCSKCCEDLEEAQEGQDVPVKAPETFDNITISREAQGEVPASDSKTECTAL

B1: TMPRSS4 Ab74 scFv (VH-VL) (scFv)
scFv: EVQLLESGGGLVQPGGSLRLSCAASGFTFSSYAMHWVRQAPGKGLEWVSSISSSSTYIHYADSVKGRFTISRDNSKNTLYLQMNSLRAEDTAVYYCARVGRYYGSGSSLVDYWGQGTLVTVSSGGGGSGGGGSGGGGSDIQMTQSPSSLSASVGDRVTITCRASQSVSSWLAWYQQKPGKAPKLLIYDASSLQSGVPSRFSGSGSGTDFTLTISSLQPEDFATYYCQQAKSFPPTFGQGTKVEIK
notes: on monoclonal phage in the screen
B2: TMPRSS4 Ab8 scFv (VH-VL) (scFv)
scFv: QVQLVQSGAEVKKPGASVKVSCKASGYRFTSQYMHWVRQAPGQGLEWMGIINPSGGSTSYAQKFQGRVTMTRDTSTSTVYMELSSLRSEDTAVYYCARGRIAVAGHPLGYWGQGTLVTVSSGGGGSGGGGSGGGGSDIQMTQSPSSLSASVGDRVTITCRASQSISSWLAWYQQKPGKAPKLLIYGASSLQSGVPSRFSGSGSGTDFTLTISSLQPEDFATYYCQQANSFPPTFGGGTKVEIK
notes: as for B1
B3: TMPRSS4 Ab77 scFv (VH-VL) (scFv)
scFv: QVQLVQSGAEVKKPGASVKVSCKASGNIFTAQYMHWVRQAPGQGLEWMGWMNPNTVYTGSAQKFQGRVTMTRDTSTSTVYMELSSLRSEDTAVYYCARDWVGDGYNSFDYWGQGTLVTVSSGGGGSGGGGSGGGGSDIVMTQSPDSLAVSLGERATINCKSSQSVLYSSNNKNYLAWYQQKPGQPPKLLIYWASTRESGVPDRFSGSGSGTDFTLTISSLQAEDVAVYYCQQYYTTPFTFGPGTKVDIK
notes: as for B1
B4: TMPRSS4 Ab72 scFv (VH-VL) (scFv)
scFv: EVQLLESGGGLVQPGGSLRLSCAASGFTFGAYVMHWVRQAPGKGLEWVSSISGGSTYYADSVKGRFTISRDNSKNTLYLQMNSLRAEDTAVYYCARHPVRGVIGAGWFDPWGQGTLVTVSSGGGGSGGGGSGGGGSDIQMTQSPSSLSASVGDRVTITCRASQNISRWLAWYQQKPGKAPKLLIYAASSLQSGVPSRFSGSGSGTDFTLTISSLQPEDFATYYCQQAISFPLTFGGGTKVEIK
notes: as for B1
B5: TMPRSS4 Ab78 scFv (VH-VL) (scFv)
scFv: EVQLLESGGGLVQPGGSLRLSCAASGFTFSSYGMNWVRQAPGKGLEWVSAISGSGGRTYYADSVKGRFTISRDNAKNSLYLQMNSLRAEDTAVYYCAKGTYYSSPKYSFDYWGQGTLVTVSSGGGGSGGGGSGGGGSDIQMTQSPSSLSASVGDRVTITCRASQDIKNFLAWYQQKPGKAPKLLIYAASSLQSGVPSRFSGSGSGTDFTLTISSLQPEDFATYYCQQSYSTPWTFGQGTKLEIK
notes: as for B1
B6: TMPRSS4 Ab9 scFv (VH-VL) (scFv)
scFv: QVQLVQSGAEVKKPGASVKVSCKASGYTFTRYYMHWVRQAPGQGLEWMGWINPNSGGTNYAQKFQGRVTMTRDTSTSTVYMELSSLRSEDTAVYYCARGGSWGSGPLGYWGQGTLVTVSSGGGGSGGGGSGGGGSDIQMTQSPSSLSASVGDRVTITCQASQDISRFLHWYQQKPGKAPKLLIYGASNLKSGVPSRFSGSGSGTDFTLTISSLQPEDFATYYCQQSYSTPPTFGGGTKVEIK
notes: as for B1
B7: TMPRSS4 Ab76 scFv (VH-VL) (scFv)
scFv: EVQLLESGGGLVQPGGSLRLSCAASGFTFSSYAMSWVRQAPGKGLEWVSAISGSGGNAYYADSVKGRFTISRDNAKNSLYLQMNSLRAEDTAVYYCAKNSWGSYRPRAFDIWGQGTMVTVSSGGGGSGGGGSGGGGSDIVMTQSPDSLAVSLGERATINCKSSQSVLYSSNNKNYLAWYQQKPGQPPKLLIYWASTRASGVPDRFSGSGSGTDFTLTISSLQAEDVAVYYCQQYLSLPYTFGQGTKVEIK
notes: as for B1
B8: TMPRSS4 Ab75 scFv (VH-VL) (scFv)
scFv: EVQLLESGGGLVQPGGSLRLSCAASGFTFSSYAMSWVRQAPGKGLEWVSSISSASSYKYYADSVKGRFTISRDNSKNTLYLQMNSLRAEDTAVYYCARDIYSSGWRGYYYYGMDVWGQGTTVTVSSGGGGSGGGGSGGGGSDIQMTQSPSSLSASVGDRVTITCRASQGIRNDLNWYQQKPGKAPKLLIYAATRLQSGVPSRFSGSGSGTDFTLTISSLQPEDFATYYCQQAHSFPYSFGQGTRLEIK
notes: as for B1
B9: SLC34A2 Ab 10 (antibody, human IgG1, kappa, V domains shown)
VH: QVQLLESGGGLVQPGASLRLSCAASGFTFSTYAMTWVRQAPGKGLEWVSGINGGGDTTYYADSVKGRFTISRDNSKNTLYLQMNSLRAEDTAVYYCAVRGYTYGYFFDYWGQGTLVTVSS
VL: DIQMTQSPSSLSASVGDRVTITCRASQGISNYLAWYQQRPGKVPKLLIYAASTLRSGVPSRFSGSGSGTDFTLTISSLQPEDVATYYCQKYNSAPLTFGGGTKVEIKR
notes: recombinant hIgG1/kappa
B10: SLC34A2 Ab 15 (antibody, human IgG1, kappa, V domains shown)
VH: QVQLQESGPGLVKPSETLSLTCTVSGGSVSSASYYWSWIRQPPGKGLEYIGYIYYSGSTYYNPSLKSRVTISIDTSKNQFSLNLRSVTAADTAVYYCARYIVGRPGFNWFDPWGQGTLVTVSS
VL: DIQMTQSPSSLSASVGDRVTITCRASQSISSYLNWYQQKPGKAPKFLISPASSLQSGVPSRFSGSGSGTDFTLTISSLQPEDFATYYCQQSYSIPWTFGQGTKVEIKR
notes: recombinant hIgG1/kappa
B11: SLC34A2 Ab 16 (antibody, human IgG1, kappa, V domains shown)
VH: B10 VH with G27D, A32V, Y49W, Y54W, N83K
VL: B10 VL with S28T, F46L, S53N, S93I
notes: recombinant hIgG1/kappa
B12: SLC34A2 Ab 8 (antibody, human IgG1, kappa, V domains shown)
VH: QVQLQESGPGLVKPSETLSLTCTVSGGSISSRSYYWGWIRQPPGKGPEWIGSIYYSGSTFYNPSLKSRVTISEDTSKSQFSLKVTSVTAADTAVYYCARHPAGYSSSWSAFDIWGQGTMVTVSS
VL: EIVLTQSPSSLSASVGDRVTITCRASQSISSYLNWYQLKPGKAPKLLIYAASSLHSGVPSRFSGSGSGTDFTLTISSLQPADFATYYCQQAYISLTFGQGTRLEIKR
notes: recombinant hIgG1/kappa from TAP products in Expi293
B13: SLC34A2 Ab 11 (antibody, human IgG1, kappa, V domains shown)
VH: QVQLQESGPGLVKPSETLSLTCTVSGGSISSSSYYWGWIRQPPGKGLEWIGSLYYSGSTYYNPSLKSRVTISVDTSKNQFSLKLNSVTAADTAVYYCTRHPRGIAARWGNWFDPWGQGTLVTVSS
VL: EIVLTQSPSSLSASVGDRLTITCRASQTISSYLNWYQQKPGKAPKVLIYAASSLQSGVPSRFSGSGSGTDFTLTISSLQPEDFATYYCQQSFIIPYTFGQGTKLEIKR
notes: as for B12
B14: SLC34A2 Ab 9 (antibody, human IgG1, kappa, V domains shown)
VH: QVQLVESGGGLVQPGRSLRLSCSGSGFTSGDYAVSWVRQAPGKGLEWVGFIRTKPYGETTEYAASVKGRFTISRDDSKSIAYLQMNSLKAEDTAVFYCTFIPVSRFLEWLPWGQGIPVTVSS
VL: DIQMTQSPSSLSAFVGDRVTITCRASQDIGNYLAWYQQTPEKVPKLLIYAASTLQSGVPSRFSGSGSGTDFTLTISSLQPEDVATYYCQNYYSVPWTFGQGTKVEIKR
notes: recombinant hIgG1/kappa

We go through 14 molecules from patent US20250297255A1 (ARSENAL BIOSCIENCES, published 2025).

What is called EC50 is the concentration needed to bring the measured effect to its halfway point. Low readings indicate an effect from little substance, high ones a need for much substance.

Numbering of substitutions follows the chain as printed.

For the first experiment, the target named is T2, Human TMPRSS4 (Transmembrane protease, serine 4), wild type full length (human, UniProt Q9NRS4 1-437).
T2 construct: Type II membrane protein over-expressed on HEK293T cells (also endogenous on H1975 and LUDLU-1 cells); also called TMPRSS4 WT; HEK293T-TMPRSS4
T2 sequence (Q9NRS4 whole entry): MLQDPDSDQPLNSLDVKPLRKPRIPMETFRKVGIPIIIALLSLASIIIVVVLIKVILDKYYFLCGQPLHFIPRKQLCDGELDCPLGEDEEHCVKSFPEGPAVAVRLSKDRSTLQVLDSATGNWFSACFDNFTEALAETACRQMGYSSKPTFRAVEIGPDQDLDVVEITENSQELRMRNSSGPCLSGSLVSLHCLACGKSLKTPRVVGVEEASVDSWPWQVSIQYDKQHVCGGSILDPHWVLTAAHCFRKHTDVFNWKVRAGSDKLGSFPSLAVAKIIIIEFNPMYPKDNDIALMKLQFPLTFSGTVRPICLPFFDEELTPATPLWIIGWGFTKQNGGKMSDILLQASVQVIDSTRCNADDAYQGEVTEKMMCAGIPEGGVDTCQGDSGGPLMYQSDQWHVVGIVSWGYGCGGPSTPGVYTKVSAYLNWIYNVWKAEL
The experiment is described as follows: flow cytometry, monoclonal phage on HEK293T-TMPRSS4 cells.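 Further: bound phage detected with a PE-labelled mouse anti-M13 monoclonal antibody, read by flow cytometry.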 For orientation: In flow cytometry, cells or beads pass a laser one at a time.
With B1, the binding result is recorded as “binds”.

In the case of B2, the binding result is listed as “binds”.

For B3, the binding result is on record as “binds”.

With B4, the binding result is reported as “binds”.

Consider B5, for which the binding result was “binds”.

B6: the binding result is “binds”.

For B7, the binding result is recorded as “binds”.

B8: the binding result was “binds”.

The target of the next experiment is T1, Human Solute Carrier Family 34 Member 2 …. The experiment is described as follows: flow cytometry on OVCAR-3 cells (endogenous human SLC34A2), hIgG1/kappa, 8 five-fold dilutions from 133 nM.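 Further: binding read as geometric mean fluorescence intensity, with non-transfected HEK293 cells serving as the negative control.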
In the case of B9, the EC50 was found to be 20 nM and the “Max Signal by flow cytometry” value came out at 218.

Turning to B10, a half-maximal effect (EC50) was put at 8 nM and the “Max Signal by flow cytometry” value worked out at 346.

Turning to B11, the response was half-maximal at 6 nM (EC50) and the “Max Signal by flow cytometry” value came to 296.

In the case of B12, the EC50 was found to be 6 nM and the “Max Signal by flow cytometry” value came out at 354.

For B13, the EC50 came to 6 nM and the “Max Signal by flow cytometry” value was found to be 224.

Turning to B14, the EC50 was found to be 37 nM and the “Max Signal by flow cytometry” value was found to be 281.
